Assay results from US20060147453A1.

Target: decorin
Test: cell-based or functional assay

“Full length human WISP-1-Fc fusion protein (baculovirus, Sf9 insect cells) (from UniProt O95388 23-367)” was tested. Which HAS2 expression in NRK cells plated on the coated surface (real time RT-PCR) did it give?
The HAS2 expression in NRK cells plated on the coated surface (real time RT-PCR) was 3 fold.
